Data on six molecules can be found in PMC5662663 (Scientific Reports, 2017).

Sequences and labels used below:
B1: Nanobody Nb7 (VHH)
VHH: QGQLVESGGGLVQPGGSLRLSCVASGFDFSNYTMSWVRQAPGKGLEWVSDISSGGGSTYYADSVKGRFTISRDNAKNTVYLQMNTLKPEDTAVYLCTELGVAPPGQGTRVTVSS
notes: Alpaca nanobody selected by phage display against BtuF; source: E. coli WK6, periplasmic extract, purified (IMAC, PD10 desalting)
B2: Nanobody Nb10 (VHH)
VHH: QLQLVESGGGLVQPGGSLRLSCAASGFTLDYYAIGWFRQAPGKEREGVSCISSSGGSTNYADSVKGRFTISRDNAKNTVYLQMNSLKPEDTAVYYCAADYAGRGFCAGLYDYWSQGTPVTVSS
B3: Nanobody Nb17 (VHH)
VHH: QRQLVESGGGLVQAGGSLRLSCAASGRTFSSYVMGWFRQAPGKEREAVASISWSGGSTYYADSVKGRFTISRDNAKNTVYLQMNSLKPEDTAVYYCAADHRTYYTGTYSPDYWGKGTPVTVSS
notes: as for B1
B4: Nanobody Nb14 (VHH)
VHH: QLQLVESGGGLVQPGGSLRLSCAASGFTFSSVAMSWVRQAPGKGLEWVSDINSVGSTYYADSVKGRFTISRDNAKNTVYLQMNSLKPEDTAVYYCVPLGERPEIHGGKGTPVTVSS
B5: Nanobody Nb15 (VHH)
VHH: QVQLVESGGGLVQPGGSLRLSCTASEATLDDYAIGWFRQAPGKEREGVSCIGSSGDVTHYADSVKGRFTISRDNAKNTGYLQLNNLRPEDTAVYYCAAAHRILGGCLVIHSSDYTSSSKGTRVTVSS
notes: as for B1
B6: Nanobody Nb9 (VHH)
VHH: QMQLVESGGGLVQPGGSLRLSCAAPESTLDDYAIGWFRQAPGKEREGVSCIGSSGDSTNYADSVKGRFTVSRDNAKNTVYLQMNDLRPEDTAVYYCAAAHRIFGGCLVIHSSGYVSWGQGTPVTVSS
notes: Alpaca nanobody selected by phage display against BtuF; additional disulfide bond between C72 (CDR2) and C128 (CDR3); source: E. coli WK6, periplasmic extract, purified (IMAC, PD10 desalting)

The target in one assay is Fluorescein-labeled variant of BtuF (BtuF_(fluo)) (Escherichia coli) (UniProt P37028). Briefly: fluorescence kinetics of nanobody displacement by Cbl; 10 nM BtuF_(fluo) equilibrated with 10 nM nanobody, then 1, 5 or 10 μM Cbl; slow phase of fluorescence decrease at 520 nm gives koff; kon calculated as koff/Ki; 50 mM Tris-HCl pH 7.5, 200 mM NaCl, 0.001% Tween 20, 23 °C.
Conditions: not given
For the molecule B1, the off-rate constant (koff) (commonly a measure of how fast the partners let go of each other) is 0.0019 s⁻¹, the association rate constant (kon) (usually the rate constant with which the complex forms) is 79000 M⁻¹ s⁻¹ and the occupancy of BtuF (fluo) with nanobody (10 nM each) is 30%.
On the same counts, the results for B2 are 0.0071 s⁻¹, 1.2e+06 M⁻¹ s⁻¹ and 53%.
Turning to B3, the koff was 0.0025 s⁻¹, the association rate constant (kon) is 46000 M⁻¹ s⁻¹ and the occupancy of BtuF (fluo) with nanobody (10 nM each) was 14%.

For the next assay the target is unchanged. Briefly: other fluorescence titration; equilibrium competition in solution: 5 nM BtuF_(fluo), Cbl 0.3 nM to 10 μM at a constant nanobody concentration (5 μM Nb14; 1 μM Nb7, Nb15, Nb17; 100 nM Nb9, Nb10); 50 mM Tris-HCl pH 7.5, 200 mM NaCl, 0.001% Tween 20, 23 °C; Ki fitted with Dynafit with Kd of Cbl 8.1 nM as input.
Conditions: not given
For the molecule B4, the Ki (commonly the dissociation constant of the complex between target and ligand, obtained from inhibition or displacement) was 770 nM.
The same measure, in the same setting: the figure for B1 is 24 nM; for B2 it is 6 nM.
On to B5, for which the inhibition constant (Ki) is 79 nM.
Still for that read-out and setting: the figure for B3 is 54 nM.

The target of another assay is T1, BtuF, periplasmic substrate-binding protein of the Escherichia coli vitamin B12 transporter BtuCD-F, tag-less (Escherichia coli (K12 sequence), UniProt P37028).
T1 construct: the assays name the protein tag-less; also called tag-less BtuF; tagless BtuF; source: prepared as described previously [6,18], purified; not shown: His-tag (3C cleavable), C-terminal, cleaved
Briefly: pull-down; His-tagged nanobodies immobilized on Ni-NTA, 1.5 molar excess of tagless BtuF, 1.5 hours at 4 °C; wash 50 mM Tris-HCl pH 7.5, 250 mM NaCl, 10% glycerol, 20 mM imidazole; elution 500 mM imidazole; SDS-PAGE; no Cbl. As to conditions: both partners purified.
As to B6, the binding result is listed as “binds”.
As for B1, the binding result was “binds”.
As to B5, the binding result was “binds”.
As to B3, the binding result is “binds”.
